Experimental data from PMC4519933, “Crystal Structure of a Hidden Protein, YcaC, a Putative Cysteine Hydrolase from Pseudomonas aeruginosa, with and without an Acrylamide Adduct” (International Journal of Molecular Sciences, 2015).

B1: Pseudomonas aeruginosa YcaC, crystal form I (Cys118 linked to propanamide) (enzyme, P. aeruginosa (endogenous in PADD1976), UniProt Q9I4D6 2-205, looked up)
chain: SFTYKRLDKNDAAVLFVDHQAGLLSLVRDFSPDEFKNNVLALADIARFFNLPTILTTSFEDGPNGPLVPELKEMFPQAPYIARPGNINAWDNEDFVKAVKATGKKQLIIAGVVTDVCVAFPTLSALEEGFDVFVVTDASGTFNPVVRDAAWARMTAAGAQLMNWFSVGCELHRDWRNDIEGFGAILGGHLPAYANLIQSFGTKK
modifications: Cys118 linked to a propanamide (acrylamide adduct); bacteria grown in minimal media with L-selenomethionine (SeMet)
notes: monomer 205 residues, 22.5 kDa; the N-formylmethionine appears to have been cleaved off; residues 204 and 205 disordered in the crystal; Not cloned: crystallised as a contaminant of a SeMet PlcHR2 preparation; identity found by molecular replacement and side chain densities; also called Pa YcaC; PA1202
B2: Pseudomonas aeruginosa YcaC, crystal form II (Cys118 as S-mercaptocysteine) (enzyme, P. aeruginosa (endogenous in PADD1976), UniProt Q9I4D6 2-205, looked up)
chain: B1 chain
modifications: Cys118 covalently modified to S-mercaptocysteine; bacteria grown in minimal media with L-selenomethionine (SeMet)
notes: monomer 205 residues, 22.5 kDa; the N-formylmethionine appears to have been cleaved off; residues 204 and 205 disordered in the crystal; Same protein and preparation route as m1; differs in the modification of Cys118 seen in the crystal; also called Pa YcaC; PA1202

Tests used:
[1] = target: the molecule itself; test: crystal structure; crystal form I, space group C2, 2.34 Å; 9 mg/mL SeMet PlcHR2 preparation in 50 mM NaCl, 50 mM Tris-HCl pH 7.4, 0.1 mM TCEP; reservoir 26% PEG 3350, 400 mM (NH4)2SO4, 70 mM bis-Tris-HCl pH 6.75, 2,5-hexanediol additive; eight chains in the asymmetric unit
[2] = target: the molecule itself; test: crystal structure; crystal form II, space group P21, 2.56 Å; 5.3 mg/mL SeMet PlcHR2 preparation in 50 mM NaCl, 5 mM MgCl2, 50 mM Tris-HCl pH 7.4, 0.1 mM TCEP; reservoir 20% PEG 3350, 200 mM Na malonate, 100 mM MES-NaOH pH 6.75; eight chains in the asymmetric unit

Protein | stoichiometry N [1] | stoichiometry N [2]
B1 | 8 | 
B2 |  | 8
